Here are results for 7 molecules from doi:10.1101/2022.12.01.518327 (bioRxiv, 2022).

Where a chain is given by its changes, count along the chain named. Numbers in names are those of the source.

Test [1] concerns the target T1, mouse LEP-R extracellular domain (mLEP-RECD) (mouse, UniProt P48356 22-839).
T1 sequence (looked up): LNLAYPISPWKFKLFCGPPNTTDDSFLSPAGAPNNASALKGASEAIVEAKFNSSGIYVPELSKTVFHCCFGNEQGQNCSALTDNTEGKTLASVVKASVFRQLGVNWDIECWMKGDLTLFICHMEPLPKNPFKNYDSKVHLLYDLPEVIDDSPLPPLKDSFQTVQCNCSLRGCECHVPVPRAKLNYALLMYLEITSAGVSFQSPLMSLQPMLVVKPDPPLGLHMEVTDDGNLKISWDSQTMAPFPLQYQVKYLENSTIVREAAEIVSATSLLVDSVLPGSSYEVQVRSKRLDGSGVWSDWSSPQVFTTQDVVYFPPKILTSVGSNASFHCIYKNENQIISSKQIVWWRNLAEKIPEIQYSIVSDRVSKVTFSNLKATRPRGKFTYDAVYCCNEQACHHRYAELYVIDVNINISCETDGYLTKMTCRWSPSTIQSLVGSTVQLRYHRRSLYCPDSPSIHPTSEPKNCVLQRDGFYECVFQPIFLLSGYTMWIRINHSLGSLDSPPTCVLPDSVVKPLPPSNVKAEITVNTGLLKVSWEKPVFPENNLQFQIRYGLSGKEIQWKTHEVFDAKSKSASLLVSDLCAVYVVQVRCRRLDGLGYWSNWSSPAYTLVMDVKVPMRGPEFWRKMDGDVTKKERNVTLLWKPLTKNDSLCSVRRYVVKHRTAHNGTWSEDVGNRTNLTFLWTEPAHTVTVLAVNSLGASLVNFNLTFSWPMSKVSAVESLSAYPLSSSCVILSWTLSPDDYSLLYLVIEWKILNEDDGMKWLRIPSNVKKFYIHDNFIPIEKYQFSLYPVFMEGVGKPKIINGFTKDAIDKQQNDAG
In words: SEC-MALLS.

Test [2] has as its target T2, human LEP-R extracellular domain (hLEP-RECD), glycosylated (human, UniProt P48357 22-839).
T2 sequence (looked up): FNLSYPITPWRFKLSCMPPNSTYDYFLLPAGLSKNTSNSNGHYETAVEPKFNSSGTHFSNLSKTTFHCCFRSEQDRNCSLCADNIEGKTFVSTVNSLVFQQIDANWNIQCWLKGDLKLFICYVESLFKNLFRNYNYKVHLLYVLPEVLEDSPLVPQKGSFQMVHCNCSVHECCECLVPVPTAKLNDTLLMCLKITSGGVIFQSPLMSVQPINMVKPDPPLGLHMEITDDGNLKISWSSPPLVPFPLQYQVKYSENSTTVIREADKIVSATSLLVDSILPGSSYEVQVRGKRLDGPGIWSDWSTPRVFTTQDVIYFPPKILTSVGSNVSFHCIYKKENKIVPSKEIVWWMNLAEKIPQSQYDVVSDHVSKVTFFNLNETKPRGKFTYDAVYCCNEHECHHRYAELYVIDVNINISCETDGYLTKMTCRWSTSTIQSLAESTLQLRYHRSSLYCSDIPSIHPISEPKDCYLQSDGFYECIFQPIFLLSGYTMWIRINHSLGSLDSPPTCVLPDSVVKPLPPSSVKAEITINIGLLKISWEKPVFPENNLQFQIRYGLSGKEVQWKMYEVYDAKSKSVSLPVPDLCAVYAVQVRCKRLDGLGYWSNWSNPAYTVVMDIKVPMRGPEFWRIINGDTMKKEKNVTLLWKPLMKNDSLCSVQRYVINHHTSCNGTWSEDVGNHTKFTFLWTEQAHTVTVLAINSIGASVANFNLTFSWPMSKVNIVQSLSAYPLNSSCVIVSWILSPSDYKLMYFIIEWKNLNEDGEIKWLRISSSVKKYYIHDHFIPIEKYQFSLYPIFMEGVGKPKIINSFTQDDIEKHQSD
In words: SEC-MALLS.

Test [3] deals with T3, mouse LEP-R Ig-CRH2 fragment, residues 328-633, C602S (mouse, UniProt P48356 328-633, C602S).
T3 sequence (looked up): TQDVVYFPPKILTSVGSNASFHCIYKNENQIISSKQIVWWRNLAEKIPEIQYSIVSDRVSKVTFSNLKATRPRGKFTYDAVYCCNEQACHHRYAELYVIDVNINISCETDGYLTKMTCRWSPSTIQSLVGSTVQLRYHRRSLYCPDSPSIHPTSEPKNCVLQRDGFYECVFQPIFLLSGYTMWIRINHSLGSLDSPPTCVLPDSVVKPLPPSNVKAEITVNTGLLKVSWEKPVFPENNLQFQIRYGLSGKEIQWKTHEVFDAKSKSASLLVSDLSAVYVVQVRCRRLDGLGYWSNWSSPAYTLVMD
In words: SEC-MALLS.

Test [4] has as its target T1, mouse LEP-R extracellular domain …. In words: SEC-MALLS + AUC.
Test [5] shares this target. Description: cryo-EM structure.
Test [6] shares this target. Description: BLI.
Test [7] concerns the target T3, mouse LEP-R Ig-CRH2 fragment, residues …. In words: crystal structure.

B1: murinized human Leptin I85V/M89L/G132D/G139L (ligand, UniProt P41159 22-167, looked up)
chain: VPIQKVQDDTKTLIKTIVTRINDISHTQSVSSKQKVTGLDFIPGLHPILTLSKMDQTLAVYQQVLTSLPSRNVIQISNDLENLRDLLHVLAFSKSCHLPWASGLETLDSLDGVLEASLYSTEVVALSRLQGSLQDMLWQLDLSPGC
B1: the binding result in test [1] is on record as “binds”.

B2: mouse Leptin (mLeptin), wild type, as used in SEC-MALLS, AUC, BLI (in solution) and on cells (ligand, UniProt P41160 22-167, looked up)
chain: VPIQKVQDDTKTLIKTIVTRINDISHTQSVSAKQRVTGLDFIPGLHPILSLSKMDQTLAVYQQVLTSLPSQNVLQIANDLENLRDLLHLLAFSKSCSLPQTSGLQKPESLDGVLEASLYSTEVVALSRLQGSLQDILQQLDVSPEC
For the molecule B2, the binding result in test [2], in test [3] and in test [4] was “binds” in each case.

B3: mouse Leptin refolded from E. coli, N-terminal His-tag removed with TEV protease (ligand, UniProt P41160 22-167, looked up)
chain: B2 chain
Regarding B3, the binding result in test [5] was “binds”.

B4: in vitro biotinylated mouse Leptin (ligand, UniProt P41160 22-167, looked up)
chain: B2 chain
modifications: biotin (NHS-PEG4-biotin, in vitro)
With B4, the binding result in test [6] is “binds”.

B5: tag-less mouse Leptin refolded from E. coli inclusion bodies (ligand, UniProt P41160 22-167, looked up)
chain: B2 chain
As to B5, the binding result in test [7] is recorded as “binds”.

B6: Leptin a1 antagonist (141ST142/AA), as used with mLEP-RECD (ligand, UniProt P41160 22-167, looked up)
chain: B2 chain with S120A, T121A
As to B6, in test [4], the “stoichiometry N” value was found to be 1.

B7: mouse Leptin a2 antagonist (60LDFI63/AAAA) (ligand, UniProt P41160 22-167, looked up)
chain: B2 chain with L39A, D40A, F41A, I42A
As to B7, the “stoichiometry N” value in test [4] is 1.

By stoichiometry N is commonly meant the number of molecules, sites or subunits per partner or assembly.
